Measured values as given in publication PMC4525287, “Auxiliary KCNE subunits modulate both homotetrameric Kv2.1 and heterotetrameric Kv2.1/Kv6.4 channels” (Scientific Reports, 2015).

Target: T1, unlabeled Kv2.1 (human, UniProt Q14721 1-858)
T1 sequence (looked up): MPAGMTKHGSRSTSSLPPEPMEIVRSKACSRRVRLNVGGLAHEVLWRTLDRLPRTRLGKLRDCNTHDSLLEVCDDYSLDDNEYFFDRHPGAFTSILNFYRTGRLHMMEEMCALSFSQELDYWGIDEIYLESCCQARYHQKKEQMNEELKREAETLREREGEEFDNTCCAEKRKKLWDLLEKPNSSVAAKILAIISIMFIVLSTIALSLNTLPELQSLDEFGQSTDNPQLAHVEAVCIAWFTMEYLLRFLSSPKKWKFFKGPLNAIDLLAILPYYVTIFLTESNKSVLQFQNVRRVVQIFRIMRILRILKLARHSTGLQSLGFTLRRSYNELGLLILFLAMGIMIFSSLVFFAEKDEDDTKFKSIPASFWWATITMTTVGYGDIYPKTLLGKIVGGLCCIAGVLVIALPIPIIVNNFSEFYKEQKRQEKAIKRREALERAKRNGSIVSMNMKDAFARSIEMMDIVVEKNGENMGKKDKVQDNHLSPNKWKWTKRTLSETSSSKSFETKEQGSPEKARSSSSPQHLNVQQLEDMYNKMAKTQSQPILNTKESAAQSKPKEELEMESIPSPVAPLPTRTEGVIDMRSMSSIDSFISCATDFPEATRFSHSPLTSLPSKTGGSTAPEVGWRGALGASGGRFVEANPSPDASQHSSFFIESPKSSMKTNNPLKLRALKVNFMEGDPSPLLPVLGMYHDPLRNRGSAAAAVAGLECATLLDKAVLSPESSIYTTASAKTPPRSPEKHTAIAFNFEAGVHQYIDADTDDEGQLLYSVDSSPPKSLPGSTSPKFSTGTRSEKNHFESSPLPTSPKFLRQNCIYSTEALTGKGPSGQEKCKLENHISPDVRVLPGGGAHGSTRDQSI
Experiment: cell-based or functional assay

- fast component of the activation of Kv2.1/Kv6.4 heterotetramers on co-expression of (untagged) KCNE5 with Kv2.1 and Kv6.4 in HEK293 cells, between +20 mV and +70 mV (whole cell current recordings): ~2 fold
B1: C-terminally YFP-labeled KCNE5 (natural protein, human, UniProt Q9UJ90 1-142, looked up)
chain: MNCSESQRLRTLLSRLLLELHHRGNASGLGAGPRPSMGMGVVPDPFVGREVTSAKGDDAYLYILLIMIFYACLAGGLILAYTRSRKLVEAKDEPSQACAEHEWAPGGALTADAEAAAGSQAEGRRQLASEGLPALAQGAERV
